Results on 4 substances are retold here after patent publication US20160244499A1.

A word on the Kd: it is the equilibrium constant for the complex coming apart. For orientation: koff means a measure of how fast the partners let go of each other. As a reminder, the kon is a measure of how fast the partners come together.

The target in experiment [1] is C-terminally biotinylated γc ectodomain (human) (UniProt P31785). Kind of experiment: SPR, cytokine/IL-4Rα complex on immobilised γc.
The target in experiment [2] is C-terminally biotinylated IL-13Rα1 ectodomain (human) (UniProt P78552). The experiment can be described thus: SPR (Biacore T100), biotinylated IL-13Rα1 on SA chip, cytokine/IL-4Rα complex as analyte. Background: In SPR one partner is held on a chip, and binding of the other changes the refractive index at the surface.
The target in experiment [3] is C-terminally biotinylated γc ectodomain (human) (UniProt P31785). The experiment can be described thus: SPR (Biacore T100), biotinylated γc on SA chip, cytokine/IL-4Rα complex as analyte, 1:1 model.
Experiment [4] shares this target. The experiment can be described thus: SPR, comparison of affinities for γc and IL-13Rα1.
In experiment [5] the target is T1, γc on human cell lines (Ramos, HH, U937) (human) (UniProt P31785).
T1 sequence (looked up): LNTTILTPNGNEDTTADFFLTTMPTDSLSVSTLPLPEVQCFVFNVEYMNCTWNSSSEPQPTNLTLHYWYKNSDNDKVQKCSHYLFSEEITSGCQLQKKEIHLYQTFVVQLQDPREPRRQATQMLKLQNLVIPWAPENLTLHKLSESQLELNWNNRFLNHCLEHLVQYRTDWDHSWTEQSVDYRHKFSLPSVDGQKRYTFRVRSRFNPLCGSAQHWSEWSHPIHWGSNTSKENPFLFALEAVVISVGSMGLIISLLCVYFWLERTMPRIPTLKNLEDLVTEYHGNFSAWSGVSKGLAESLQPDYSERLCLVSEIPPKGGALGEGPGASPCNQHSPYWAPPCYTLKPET
Kind of experiment: cell-based or functional assay.

For experiment [6], the target named is C-terminally biotinylated IL-13Rα1 ectodomain (human) (UniProt P78552). Kind of experiment: Table 1, affinity for IL-13Rα1; method for this row not stated.
For experiment [7] the target is unchanged. The experiment can be described thus: SPR (Biacore T100), biotinylated IL-13Rα1 on SA chip, cytokine/IL-4Rα complex as analyte, 1:1 model.

Chain of wild-type IL-4, free recombinant cytokine (P05112 other isoform, or with tags, fused parts or gaps): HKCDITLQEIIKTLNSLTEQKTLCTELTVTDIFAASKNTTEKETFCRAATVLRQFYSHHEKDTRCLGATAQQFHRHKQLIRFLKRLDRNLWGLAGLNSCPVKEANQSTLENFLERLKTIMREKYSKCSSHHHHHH

In experiment [1], “RGA/IL-4Rα binary complex (from UniProt P24394 26-202)” came in with a fold faster on-rate (against IL-4) of 6 fold, a fold higher affinity (against IL-4/IL-4Rα) of 3700 fold and a logs gained in binding affinity (against IL-4) of 4 log. The same substance registered a Kd in experiment [2] of 21 µM. Besides, in experiment [3], the Kd stood at 0.00089 µM, the koff was found to be 0.00059 s⁻¹ and the kon amounted to 660000 M⁻¹ s⁻¹. In experiment [4], this substance registered a selectivity for the Type-I receptor complex over the Type-II receptor of 6 log.
In experiment [5], “wild-type IL-4, free recombinant cytokine (from UniProt P05112 25-153) (ligand)” had a mean MFI of STAT6 phosphorylation, Ramos cells, 100 pg/ml, 20 minute stimulation of 7.7 MFI; a percentage decrease in STAT6 phosphorylation caused by 50 µg/ml of anti-γc, Ramos cells, 100 pg/ml cytokine of 58%; a reduction in STAT6 phosphorylation on blocking γc in U937 cells of 44%.
In experiment [6], “IL-13 (from UniProt P35225 35-146) (ligand)” showed a Kd of 0.03 µM.
In experiment [3], “wild-type IL-4/IL-4Rα binary complex (from UniProt P24394 26-202)” came in with a Kd of 3.3 µM, a koff of 0.31 s⁻¹ and a kon of 95000 M⁻¹ s⁻¹. In experiment [7], this substance returned a Kd of 4.2 µM, a dissociation rate constant (koff) of 0.17 s⁻¹ and a kon of 41000 M⁻¹ s⁻¹.
